{"source": "paper PMC5967604", "key": {"[1]": {"target": "OSM-3G444E^Halo (C. elegans) (UniProt P46873)", "test": "single-molecule colocalisation of differentially labelled proteins"}, "OSM-3^SNAP (C. elegans)": {"target": "OSM-3^SNAP (C. elegans) (UniProt P46873)", "test": "single-molecule colocalisation of differentially labelled proteins"}}, "data": [{"substance": "QCC with GFP-tagged IFT-52(OSM-6), G5EDF6 1-472; Q0G838 1-471; G5ED37 1-820; Q8I7G4 1-656", "values": [{"measurement": "colocalisation efficiency", "setting": "[1]", "result": 85, "unit": "%"}, {"measurement": "colocalisation efficiency", "setting": "OSM-3^SNAP (C. elegans)", "result": 81, "unit": "%"}]}]}
